Seven molecules from US20190111150A1 (AbbVie / Abbott, published 2019) can be followed below.

Positions count from the first letter of the chain named.

Assay [1] addresses T1, recombinant human FcγRIIa H131 (human, UniProt P12318 36-218, limits assumed).
T1 construct: also called huFcγRIIa H131; FcγIIa H131
T1 sequence (looked up): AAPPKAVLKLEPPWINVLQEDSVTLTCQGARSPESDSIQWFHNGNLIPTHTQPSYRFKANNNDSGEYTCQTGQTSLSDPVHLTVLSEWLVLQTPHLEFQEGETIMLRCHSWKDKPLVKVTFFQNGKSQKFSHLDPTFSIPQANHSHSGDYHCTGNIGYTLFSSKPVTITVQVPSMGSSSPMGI
Description: SPR (Biacore), FcγR captured via 6xHis tag, steady state affinity model. (In general: SPR reads the build-up and loss of mass on a sensor chip optically.)
Description: (§1) Mouse anti-6×His antibodies were directly immobilized on a CMS chip by amine coupling according to manufacturer's protocol to the density of 10000 RU. Human FcγRs were then captured on Flow Cells 2, 3 and 4 to achieve capture level of the FcγRs of 250-500 RU. Flow Cell 1 was used as a reference surface. HBS-EP+ buffer (GE, Healthcare) was used as the running buffer. […] The chip surfaces were regenerated with an injection of 100 mM HCl at a flow rate of 100 μL/minute for two seconds over all four flow cells. Three experiments with the use of three different CMS chips were run for each sample (each in duplicate) to accommodate all types of experimental error (instrument, surface and operator). The results of these three experiments were averaged.
(§2) All recombinant human FcγRIIIa V158 data and FcγRIIIa F158 data were fitted to 1:1 binding fit model with Rmax fixed local to account for variability in capture levels. Recombinant human FcγRIIb, FcγRIIa H131, and FcRn binding data were fitted to a steady state affinity model. Biacore T200 Evaluation Software Version 2.0 was used to fit all the data.

The target in assay [2] is T2, cynomolgus monkey CD71 on cells (cynomolgus monkey, UniProt H9EXL1 1-760 (rhesus entry)).
T2 construct: whole, on cells; also called cell-surface cynomolgus CD71; CHO w/ Cynomolgus CD71
T2 sequence (chain, as listed by the source): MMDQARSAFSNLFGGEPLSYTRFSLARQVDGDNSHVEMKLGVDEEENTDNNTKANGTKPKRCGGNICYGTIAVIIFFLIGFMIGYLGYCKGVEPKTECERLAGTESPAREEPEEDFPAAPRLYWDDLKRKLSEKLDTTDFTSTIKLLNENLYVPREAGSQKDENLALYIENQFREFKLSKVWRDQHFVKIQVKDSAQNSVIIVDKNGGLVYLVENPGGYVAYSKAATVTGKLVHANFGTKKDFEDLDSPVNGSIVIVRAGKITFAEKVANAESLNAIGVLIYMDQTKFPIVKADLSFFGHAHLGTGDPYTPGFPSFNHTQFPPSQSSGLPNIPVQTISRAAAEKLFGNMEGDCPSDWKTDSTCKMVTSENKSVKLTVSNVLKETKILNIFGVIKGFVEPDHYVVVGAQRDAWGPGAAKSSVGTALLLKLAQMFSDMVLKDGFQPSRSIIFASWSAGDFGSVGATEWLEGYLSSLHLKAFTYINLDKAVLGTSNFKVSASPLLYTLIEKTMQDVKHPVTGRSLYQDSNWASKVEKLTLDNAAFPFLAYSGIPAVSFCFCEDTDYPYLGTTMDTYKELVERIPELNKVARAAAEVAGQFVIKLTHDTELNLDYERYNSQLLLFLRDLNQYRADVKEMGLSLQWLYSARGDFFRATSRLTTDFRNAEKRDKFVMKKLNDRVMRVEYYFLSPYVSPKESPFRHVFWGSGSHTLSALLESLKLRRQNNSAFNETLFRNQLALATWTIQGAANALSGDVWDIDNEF
Description: flow cytometry on CHO-K1 cells expressing cynomolgus CD71; Kapp.
Description: (§3) The flow cytometry results reflect the average measured Kapp from four human cell lines (HCC1806 human breast cancer, HT-29 human colorectal cancer, NCI-H292 human lung cancer, and NCI-H520 human lung cancer) and one CHO-K1 cell line expressing cynomolgus monkey CD71.

The target of assay [3] is T3, recombinant cynomolgus monkey CD71 extracellular domain (cynomolgus monkey, UniProt H9EXL1 89-760 (rhesus entry)).
T3 construct: extracellular domain; also called rcCD71; monkey recombinant CD71
T3 sequence (chain, as listed by the source): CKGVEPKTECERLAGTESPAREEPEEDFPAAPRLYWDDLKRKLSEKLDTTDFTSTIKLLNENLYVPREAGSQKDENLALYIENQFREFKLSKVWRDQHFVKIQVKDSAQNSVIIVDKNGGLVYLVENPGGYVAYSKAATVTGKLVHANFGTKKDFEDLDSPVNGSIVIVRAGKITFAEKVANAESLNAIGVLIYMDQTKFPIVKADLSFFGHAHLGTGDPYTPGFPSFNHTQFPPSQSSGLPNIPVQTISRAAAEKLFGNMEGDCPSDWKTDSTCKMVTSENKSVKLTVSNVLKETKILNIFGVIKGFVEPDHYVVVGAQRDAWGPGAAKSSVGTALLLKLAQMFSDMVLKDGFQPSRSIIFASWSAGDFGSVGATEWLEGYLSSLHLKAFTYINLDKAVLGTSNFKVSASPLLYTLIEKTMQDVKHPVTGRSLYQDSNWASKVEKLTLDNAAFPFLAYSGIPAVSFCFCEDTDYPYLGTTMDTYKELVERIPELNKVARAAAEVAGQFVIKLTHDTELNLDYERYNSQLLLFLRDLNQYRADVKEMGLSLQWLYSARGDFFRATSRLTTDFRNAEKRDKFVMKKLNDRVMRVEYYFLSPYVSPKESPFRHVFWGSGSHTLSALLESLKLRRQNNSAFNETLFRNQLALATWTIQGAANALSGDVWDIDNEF
Put plainly: ratio of Kapp; ELISA on rcCD71. A general note: An ELISA detects its analyte on a solid surface through an enzyme-linked reagent.
Description: (§4) In the ELISA examples, recombinant cynomolgus or human CD71 ECD proteins were coated on ELISA plates, and then incubated with one of a range of concentrations of the test articles of the present disclosure, followed by measurement of the amount of bound test article with a secondary antibody.

Assay [4] concerns the target T4, recombinant human CD71 extracellular domain (human, UniProt P02786 89-760).
T4 construct: extracellular domain; Treated as one molecule; also called rhCD71; human CD71 ECD
Description: ELISA, recombinant human CD71 (R&D Systems) coated at 1 ug/mL; Kd(app).
Description: (§5) The amount of bound antibody in each sample was detected by incubation and detection by goat anti-human antibody conjugated to horseradish peroxidase and Ultra TMB (Thermo Fisher Scientific) detection.

Assay [5] addresses T5, human CD71 on the surface of human cell lines (human, UniProt P02786 1-760).
T5 construct: whole, on cells; also called cell-surface human CD71; CD71 on BxPC3, NCI-H292, HCC1806, HT-29, NCI-H520 cells
Description: ratio of Kapp; flow cytometry, average of 4 human cell lines.
Description: as §3

Assay [6] concerns the target T4, recombinant human CD71 extracellular …. Put plainly: ELISA on coated recombinant human CD71 ECD (rhCD71); Kapp.
Description: as §4
Assay [7] concerns the target T3, recombinant cynomolgus monkey CD71 …. Put plainly: ELISA on plate-coated recombinant cynomolgus CD71 (1 µg/mL), goat anti-human HRP, TMB, Abs 450.
Description: as §5
For the next assay, the target named is T6, human FcRn (human, UniProt P55899 24-297; P61769 21-119).
T6 construct: also called Hu FcRn; neonatal Fc receptor
T6 sequence (P55899 24-297 limits assumed, form in doubt, chain 1 of 2): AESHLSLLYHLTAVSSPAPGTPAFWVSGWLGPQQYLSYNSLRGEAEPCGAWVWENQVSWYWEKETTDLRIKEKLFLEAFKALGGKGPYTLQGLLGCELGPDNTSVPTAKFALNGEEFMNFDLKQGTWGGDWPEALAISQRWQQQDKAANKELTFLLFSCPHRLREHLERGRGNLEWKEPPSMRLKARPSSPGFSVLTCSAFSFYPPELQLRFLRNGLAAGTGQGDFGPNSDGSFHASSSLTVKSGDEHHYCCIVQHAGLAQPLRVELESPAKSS
T6 sequence (P61769 21-119 limits assumed, form in doubt, chain 2 of 2): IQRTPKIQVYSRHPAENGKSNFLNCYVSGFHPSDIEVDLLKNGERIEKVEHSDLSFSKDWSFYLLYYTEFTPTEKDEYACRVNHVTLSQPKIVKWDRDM
Description: SPR (Biacore), antibody immobilized, FcRn injected, pH 6.0, steady state affinity model; FcRn at pH 6.0.

Assay [8] has as its target T2, cynomolgus monkey CD71 on cells. Description: ratio of Kapp; flow cytometry on CHO-K1 cyno CD71. Background: Flow cytometry measures light scatter and fluorescence of single cells or particles in a stream.
Description: as §3
Assay [9] has as its target T3, recombinant cynomolgus monkey CD71 …. Description: ELISA on coated recombinant cynomolgus CD71 ECD (rcCD71); Kapp.
Description: as §4
Assay [10] has as its target T7, recombinant human FcγRIIIa F158 (human, UniProt P08637 17-208).
T7 construct: also called huFcγRIIIa F158
Description: SPR (Biacore), FcγR captured via 6xHis tag, 1:1 binding fit.
Description: as §1, §2

Assay [11] addresses T8, recombinant human FcγRIIIa V158 (human, UniProt P08637 17-208).
T8 construct: also called huFcγRIIIa V158
Described as above.
Description: as §1, §2

Assay [12] deals with T5, human CD71 on the surface of human cell …. Put plainly: flow cytometry, average of 4 human cell lines (HCC1806, HT-29, NCI-H292, NCI-H520); Kapp.
Description: as §3
Assay [13] addresses T3, recombinant cynomolgus monkey CD71 …. Description: ELISA, recombinant cynomolgus CD71 (R&D Systems) coated at 1 ug/mL; Kd(app).
Description: as §5
The target of assay [14] is T4, recombinant human CD71 extracellular …. Put plainly: ratio of Kapp; ELISA on rhCD71.
Description: as §4
Assay [15] deals with T2, cynomolgus monkey CD71 on cells. Description: flow cytometry on CHO cells expressing cynomolgus CD71, Alexa Fluor 647 goat anti-human IgG (MFI).
In the next assay the target is human FcγRI (human, UniProt P12314 16-288, limits assumed). Description: FcγRI competition binding ELISA (results not shown).
Chain of human FcγRI (P12314 16-288 limits assumed): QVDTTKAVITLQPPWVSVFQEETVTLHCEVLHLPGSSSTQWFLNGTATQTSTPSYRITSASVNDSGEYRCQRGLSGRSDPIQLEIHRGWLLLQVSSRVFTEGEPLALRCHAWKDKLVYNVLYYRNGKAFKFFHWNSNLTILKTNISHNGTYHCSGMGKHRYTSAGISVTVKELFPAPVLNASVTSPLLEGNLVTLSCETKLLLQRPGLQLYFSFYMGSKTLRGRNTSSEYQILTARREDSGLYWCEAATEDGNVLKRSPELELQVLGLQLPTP
Assay [16] deals with T2, cynomolgus monkey CD71 on cells. Put plainly: flow cytometry on cynomolgus monkey primary kidney epithelial cells; apparent Kd (Kapp).
The target of assay [17] is T5, human CD71 on the surface of human cell …. Description: flow cytometry on human BxPC3 cells; apparent Kd (Kapp).
The target in assay [18] is T3, recombinant cynomolgus monkey CD71 …. Description: ELISA on recombinant CD71 ECD; apparent Kd (Kapp).
The target of assay [19] is T4, recombinant human CD71 extracellular …. Put plainly: ELISA on recombinant CD71 ECD; apparent Kd (Kapp).
The target in assay [20] is T5, human CD71 on the surface of human cell …. Description: FACS on NCI H292 cells; apparent Kd (Kapp).
The target of another assay is T9, recombinant mouse CD71 (mouse, UniProt Q62351 89-763).
T9 construct: extracellular domain; also called mouse CD71 ECD
T9 sequence (Q62351 89-763): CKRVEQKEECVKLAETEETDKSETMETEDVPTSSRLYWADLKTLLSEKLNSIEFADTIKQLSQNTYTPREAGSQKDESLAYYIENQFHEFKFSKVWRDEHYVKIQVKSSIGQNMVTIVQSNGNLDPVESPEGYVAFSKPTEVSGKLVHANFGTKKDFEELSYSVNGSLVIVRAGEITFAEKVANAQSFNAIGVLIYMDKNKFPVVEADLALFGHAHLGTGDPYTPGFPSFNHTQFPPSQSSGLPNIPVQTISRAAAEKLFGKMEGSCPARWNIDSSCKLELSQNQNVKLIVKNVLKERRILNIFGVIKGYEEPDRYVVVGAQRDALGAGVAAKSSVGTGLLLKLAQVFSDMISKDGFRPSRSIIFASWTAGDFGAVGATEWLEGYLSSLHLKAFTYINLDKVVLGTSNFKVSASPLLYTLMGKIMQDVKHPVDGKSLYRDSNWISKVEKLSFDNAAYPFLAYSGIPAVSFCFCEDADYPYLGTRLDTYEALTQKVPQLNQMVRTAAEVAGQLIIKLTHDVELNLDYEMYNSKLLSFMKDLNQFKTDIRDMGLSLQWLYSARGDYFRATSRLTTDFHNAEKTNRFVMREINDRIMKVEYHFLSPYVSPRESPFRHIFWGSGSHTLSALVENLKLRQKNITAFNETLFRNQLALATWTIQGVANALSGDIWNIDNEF
Description: ELISA on recombinant mouse CD71 (ECD).

The target of assay [21] is T10, rat CD71 on rat H-4-II-E hepatoma cells (rat, UniProt Q99376 1-761).
T10 construct: whole, on cells; also called rat CD71-expressing cell line
Description: flow cytometry on rat H-4-II-E hepatoma cells.

Assay [22] concerns the target T5, human CD71 on the surface of human cell …. Put plainly: FACS on cells.

T5 sequence (P02786 whole entry): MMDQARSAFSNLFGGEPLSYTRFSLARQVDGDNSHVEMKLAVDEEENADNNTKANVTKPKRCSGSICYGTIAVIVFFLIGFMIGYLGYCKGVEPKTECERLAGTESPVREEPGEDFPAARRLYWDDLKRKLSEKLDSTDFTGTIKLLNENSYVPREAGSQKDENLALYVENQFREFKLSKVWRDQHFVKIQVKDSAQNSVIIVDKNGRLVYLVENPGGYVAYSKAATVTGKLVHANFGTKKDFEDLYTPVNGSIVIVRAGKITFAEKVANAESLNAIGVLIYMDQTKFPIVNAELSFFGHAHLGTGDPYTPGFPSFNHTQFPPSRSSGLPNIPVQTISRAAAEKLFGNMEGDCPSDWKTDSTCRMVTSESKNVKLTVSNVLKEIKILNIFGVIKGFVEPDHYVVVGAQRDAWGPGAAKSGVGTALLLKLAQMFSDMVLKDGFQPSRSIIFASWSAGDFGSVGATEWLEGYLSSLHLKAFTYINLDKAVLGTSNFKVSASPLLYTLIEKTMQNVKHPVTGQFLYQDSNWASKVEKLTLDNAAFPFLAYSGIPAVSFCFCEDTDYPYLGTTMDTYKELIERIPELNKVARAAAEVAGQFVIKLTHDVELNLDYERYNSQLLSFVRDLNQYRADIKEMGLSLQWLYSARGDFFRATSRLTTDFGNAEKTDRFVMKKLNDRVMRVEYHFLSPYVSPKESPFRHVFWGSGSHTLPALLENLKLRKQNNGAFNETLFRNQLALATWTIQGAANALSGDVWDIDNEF
T4 sequence (P02786 89-760): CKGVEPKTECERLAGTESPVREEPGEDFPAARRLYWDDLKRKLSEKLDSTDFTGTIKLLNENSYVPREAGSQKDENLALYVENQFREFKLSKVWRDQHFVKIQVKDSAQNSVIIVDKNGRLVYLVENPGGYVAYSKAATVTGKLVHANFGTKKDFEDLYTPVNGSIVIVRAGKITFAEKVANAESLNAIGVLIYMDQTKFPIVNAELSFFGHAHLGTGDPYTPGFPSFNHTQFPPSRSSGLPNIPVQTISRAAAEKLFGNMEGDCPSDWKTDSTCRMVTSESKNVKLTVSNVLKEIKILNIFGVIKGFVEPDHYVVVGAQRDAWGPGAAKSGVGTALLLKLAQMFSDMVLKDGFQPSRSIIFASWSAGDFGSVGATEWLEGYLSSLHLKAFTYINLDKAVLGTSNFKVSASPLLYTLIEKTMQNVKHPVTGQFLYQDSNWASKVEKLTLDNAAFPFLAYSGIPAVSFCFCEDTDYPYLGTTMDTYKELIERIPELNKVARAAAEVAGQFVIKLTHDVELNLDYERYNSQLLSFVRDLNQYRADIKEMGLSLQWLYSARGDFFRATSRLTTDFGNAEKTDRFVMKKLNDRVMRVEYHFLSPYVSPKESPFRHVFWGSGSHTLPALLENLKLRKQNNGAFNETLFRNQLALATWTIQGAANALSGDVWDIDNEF
T7 sequence (P08637 17-208 limits assumed): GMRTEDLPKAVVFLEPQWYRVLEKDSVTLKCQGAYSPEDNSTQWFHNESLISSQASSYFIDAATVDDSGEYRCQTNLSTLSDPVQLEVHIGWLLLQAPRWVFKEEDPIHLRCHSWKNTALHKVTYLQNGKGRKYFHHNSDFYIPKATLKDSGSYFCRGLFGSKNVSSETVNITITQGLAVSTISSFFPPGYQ
T8 sequence (P08637 17-208 F176V): as the sequence (P08637 17-208 limits assumed) above, with F160V counted along it
Description for human FcRn: The surfaces were regenerated with an injection of 100 mM HCl for two seconds followed by HBS-EP+, pH 7.4. Samples were prepared and run in two running buffer systems, MES-EP+ pH 6.0 and HBS-EP pH 7.4. Three experiments with the use of three different CMS chips were run for each sample (each in duplicate) to account for instrument, surface and operator error. The results of these three experiments were averaged.
as §2

B1: anti-CD71 activatable antibody anti-CD71-TF02.13-2011, intact (uncleaved) (antibody, human IgG1, kappa)
heavy: not shown
light: NLCTEHSAALDCRSYGGGSSGGSISSGLLSGRSDNPGGGSDIQMTQSPSSLSASVGDRVTITCSASSSVYYMYWFQQKPGKAPKLWIYSTSNLASGVPSRFSGSGSGTDYTLTISSMQPEDFATYYCQQRRNYPYTFGQGTKLEIKRTVAAPSVFIFPPSDEQLKSGTASVVCLLNNFYPREAKVQWKVDNALQSGNSQESVTEQDSKDSTYSLSSTLTLSKADYEKHKVYACEVTHQGLSSPVTKSFNRGEC
notes: copies: 2 + 2
Regarding B1, the Kd in assay [1] stood at 4700 nM; in assay [2] it was 28 nM; in [4], 0.42 nM; in assay [6], 1.94 nM; with human FcRn it was 4700 nM; in assay [9], 1.11 nM. Moreover, the Kd turned out to be 1800 nM in assay [10], 180 nM in assay [11], 106 nM in [12] and 1.24 nM in assay [13]. Moreover, the “Ratio anti-CD71-TF02.13-2011/Ab21.12” value in [3] worked out at 37; in assay [5], 127; in [8], 93; in assay [14] it was 65. For the same molecule, the “Ratio anti-CD71-TF02.13-2011/anti-CD71-TF02.13-2011, matriptase activated” value was 28 in assay [3], 55 in assay [5], 56 in assay [8] and 32 in [14]. For the same molecule, the “EC50 (read off the curve)” value in assay [7] is approximately 1 nM; in assay [15], approximately 30 nM.

B2: anti-CD71 conjugated activatable antibody anti-CD71-TF02.13-2011-vcMMAE E2, intact (uncleaved) (antibody, human IgG1, kappa)
heavy: not shown
light: B1 light
modifications: vc-MMAE (maleimide caproyl-valine-citrulline linker with monomethyl auristatin E) on interchain cysteine thiols after partial TCEP reduction; drug load 2 per activatable antibody; chain and positions not stated
notes: E2 = enriched for drug load 2 (DAR about 2); also called AADC; copies: 2 + 2
Regarding B2, the Kd in [1] was 6200 nM; in [2], 35 nM; in assay [4], 0.48 nM; in [6], 2.58 nM; with human FcRn, 5300 nM; in assay [9], 1.02 nM. Moreover, the Kd in [10] stood at 2100 nM; in [12] it was 98.1 nM; in assay [13] it was 1.49 nM. Besides, the concentration for a half-maximal effect (EC50 (read off the curve)) in assay [7] is approximately 1 nM; in assay [15] it was approximately 30 nM. For the same molecule, the binding result in the assay with human FcγRI was “binds”.

B3: anti-CD71-TF02.13-2011, protease-activated (cleaved) (antibody, not shown: small tags and cut ends)
heavy: not shown
light: DIQMTQSPSSLSASVGDRVTITCSASSSVYYMYWFQQKPGKAPKLWIYSTSNLASGVPSRFSGSGSGTDYTLTISSMQPEDFATYYCQQRRNYPYTFGQGTKLEIKRTVAAPSVFIFPPSDEQLKSGTASVVCLLNNFYPREAKVQWKVDNALQSGNSQESVTEQDSKDSTYSLSSTLTLSKADYEKHKVYACEVTHQGLSSPVTKSFNRGEC
notes: the mask is released
Regarding B3, the Kd worked out at 0.5 nM in assay [2]; 0.04 nM in [4]; 0.06 nM in assay [6]; 0.04 nM in assay [9]; 2 nM in assay [12]; 0.06 nM in assay [13]. For the same molecule, in assay [7], the 50% effective concentration (EC50 (read off the curve)) was approximately 0.06 nM.

B4: anti-CD71-TF02.13-2011-vcMMAE E2, protease-activated (cleaved) (antibody, not shown: small tags and cut ends)
heavy: not shown
light: B3 light
modifications: vc-MMAE on interchain cysteine thiols; drug load 2 per antibody; chain and positions not stated
notes: m14 after protease treatment; the mask is released
Consider B4, for which the Kd amounted to 0.7 nM in [2]; 0.05 nM in assay [4]; 0.05 nM in assay [6]; 0.04 nM in [9]; 2 nM in assay [12]; 0.07 nM in [13]. In assay [7], the “EC50 (read off the curve)” value is approximately 0.07 nM.

B5: anti-CD71 Ab21.12 LcB:HcC antibody (antibody, V domains shown)
VH: QVQLVQSGAEVKKPGASVKMSCKASGYTFTSYWMHWVRQAPGQGLEWIGAIYPGNSETGYAQKFQGRATLTADTSTSTAYMELSSLRSEDTAVYYCTRENWDPGFAFWGQGTLITVSS
VL: DIQMTQSPSSLSASVGDRVTITCSASSSVYYMYWFQQKPGKAPKLWIYSTSNLASGVPSRFSGSGSGTDYTLTISSMQPEDFATYYCQQRRNYPYTFGQGTKLEIK
notes: Humanized; also called huCD71 21.12 Ab; anti-CD71 21.12 antibody
As for B5, the Kd was 0.3 nM in assay [2]; 3 nM in assay [16]; 3 nM in assay [17]; 0.03 nM in [6]; 0.4 nM in [18]; 0.3 nM in assay [19]. The values for the Kd in [9], in assay [20] and in [12] were 0.03 nM, 2.29 nM and 0.8 nM, respectively. Moreover, the binding result (in the assay with recombinant mouse CD71; in assay [21]) was “no binding” each time.

B6: conjugated antibody anti-CD71 Ab21.12-vcMMAE E2 (antibody, V domains shown)
VH: B5 VH
VL: B5 VL
modifications: vc-MMAE conjugated; DAR about 2 (E2); positions not given
notes: Unmasked antibody drug conjugate of Ab21.12
Consider B6, for which the Kd was found to be 0.04 nM in [6] and 0.03 nM in assay [9].

B7: humanized anti-CD71 antibody Ab21.10 LcB:HcA (antibody, V domains shown)
VH: B5 VH with M20V, I48M, A68V, L70M, A72R, A79V, T97A, I114V
VL: B5 VL
notes: Detected with anti-human IgG
In the case of B7, the binding result in [22] is given as “binds”.

A word on the EC50 (read off the curve): it is the concentration giving half of the maximal effect.
